Measurements from patent US10400249B2, “HPPD variants and methods of use” (priority 2014, dated 2019).
Numbering of substitutions follows the chain as printed. Numbers in names are those of the source.

B1: PfEvo43: PfHPPD variant E335P, G336F (protein)
chain: MADLYENPMGLMGFEFIEFASPTPGTLEPIFEIMGFTKVATHRSKNVHLYRQGEINLILNNEPNSIASYFAAEHGPSVCGMAFRVKDSQKAYNRALELGAQPIHIDTGPMELNLPAIKGIGGAPLYLIDRFGEGSSIYDIDFVYLEGVERNPVGAGLKVIDHLTHNVYRGRMVYWANFYEKLFNFREARYFDIKGEYTGLTSKAMSAPDGMIRIPLNEESSKGAGQIEEFLMQFNGEGIQHVAFLTDDLVKTWDALKKIGMRFMTAPPDTYYEMLEGRLPDHGEPVDQLQARGILLDGSSVEGDKRLLLQIFSETLMGPVFFEFIQRKGDDGFGPFNFKALFESIERDQVRRGVLTAD
modifications: HPPD variant - PfEvo43
notes: PfHPPD variant E335P, G336F
B2: FLP129: PfHPPD variant E335P, G336F, K339A, A340Q (protein)
chain: B1 chain with K339A, A340Q
modifications: HPPD variant - FLP129
notes: PfHPPD variant E335P, G336F, K339A, A340Q
B3: FLP130: PfHPPD variant E335P, G336F, A340E (protein)
chain: B1 chain with A340E
modifications: HPPD variant - FLP130
notes: PfHPPD variant E335P, G336F, A340E

Columns and labels:
T0 soybean plants = test: greenhouse spray test of T0 soybean plants for tolerance to mesotrione; type: in vivo; details: 316 grams AI per hectare; for Number of T0 soybean plants with herbicide tolerance rating 0 (completely bleached) / Number of T0 soybean plants with herbicide tolerance rating 1 (slight tolerance) / Number of T0 soybean plants with herbicide tolerance rating 2 (moderate tolerance) / Number of T0 soybean plants with herbicide tolerance rating 3 (nearly perfect tolerance): mesotrione 3X field rate, seven days after treatment
Description: T0 soybean plants expressing an HPPD inhibitor tolerant enzyme of the present invention, along with a gene conferring tolerance to glyphosate and a gene conferring tolerance to glufosinate or having a “plant expression cassette”, which includes only an HPPD inhibitor tolerant enzyme of the present invention, were tested for tolerance to mesotrione. Prior greenhouse trials with the transgenic plants, soy transformants were routinely analyzed for the expression and presence of the transgenes using the ELISA protein detection method (see detailed description under item D and H). Only plants recovering in the selection media and having a detectable HPPD transgene protein expression were used for the herbicide tolerance analysis. A DeVries Tracker Sprayer was calibrated prior to each spraying. The chemical formulation used for mesotrione (MST) testing was Callisto® 4 SC formulation supplemented with ammonium sulfate and methylated rape seed oil (Actirob). Spray tests were conducted using 3× the field rate (equivalent to 9 fluid ounce per acre of the same herbicide formulation that containing 40% the active ingredient (AI), mesotrione), which equals 316 grams AI per hectare. Tolerance was evaluated one week after spraying. […] A tolerance rating of “0” was assigned to plants that their shoot apexes, newly emerged trifoliates and some axillary buds were completely bleached. A rating of “1” was assigned to plants having slight tolerance, i.e., the newest plant shoot tissues had some green leaves and are not bleached completely. A rating of “2” was assigned to plants showing moderate tolerance, i.e., more than 50% of the leaf area of the top three trifoliates showing no chlorosis or bleaching damage. A rating of “3” was assigned to plants showing nearly perfect tolerance, i.e., less than 10% of the leaf area showing chlorosis or very slight bleaching.

[1] = system: Pseudomonas fluorescens HPPD protein; test: OD assay: HPPD activity and pI50 from HPP remaining after derivatisation with DNP; type: biochemical; details: for Activity DeltaE/24 min μg Protein: HPPD enzyme activity of the clone; for tolerance (pI50) Cmpd. 2: inhibitor Cmpd. 2; for tolerance (pI50) DKN: inhibitor diketonitrile (DKN), negative log of molar concentration; for tolerance (pI50) MST: inhibitor mesotrione (MST); for tolerance (pI50) TBT: inhibitor tembotrione (TBT)
Description: (§1) HPPD proteins were produced and purified as described in WO2011/076882. The activity of HPPD proteins in absence or presence of HPPD inhibitors was determined using either the so called OD assay or the HGD assay.
(§2) • a) The OD assay: The HPPD activity was determined colourimetrically by measuring the amount of HPP remaining in the assay mixture at the end of the incubation period after derivatisation of HPP with 2,4-dinitrophenylhydrazine (DNP) to form an amber-brown colored 2,4-dinitrophenylhydrazone under alkaline conditions. The assay was carried out at room temperature in Greiner F-bottom 96 well microplates. The assay mixture contained 50 mM Tris-HCl pH 7.8, 0.5 mM HPP, 10 mM ascorbate, 650 units of catalase and appropriate amounts of purified HPPD enzyme in a total assay volume of 100 μl. The reaction was started by the addition of enzyme. After an incubation time of 24 minutes, the reaction was stopped by the addition of 50 μl of a solution of 0.04% DNP dissolved in 3.8 N HCl. After a further 15-minute incubation period 100 μl of a 5 N KOH solution was added to the reaction mixture and the amount of unconsumed HPP was measured photometrically at 405 nm. Enzyme activity was calculated as the difference in E405 between assays lacking enzyme (negative control) and the enzyme containing assays (ΔE405=E405(negative control)−E405). Enzyme activity (nmol substrate consumed per min) was calculated from a calibration curve generated from HPP. pI50-values (the negative log value of the concentration of inhibitor necessary to inhibit 50% of the enzyme activity in molar concentration were determined from dose-response plots of HPPD activity versus inhibitor concentration tested (5.0×10^−6, 1.0×10^−5, 2.5×10^−5, 4.0×10^−5, 7.0×10^−5, 1.0×10^−4, 2.0×10^−4 and 5.0×10^−4M) using the 4 Parameter Logistic Model or Sigmoidal Dose-Response Model of the ID Business Solutions Ltd. XLfit software suite. The result “>5.6” means that the inhibition at the lowest inhibitor concentration tested was higher than 85% and the pI50-value could therefore not be precisely calculated within in the range of concentration of inhibitor tested. The result “<2.5” means that the inhibition at the highest inhibitor concentration tested was lower than 25% and the pI50-value could therefore not be precisely calculated within in the range of concentration of inhibitor tested. “n.d.” means not determined. • b) The HGD assay: With the HGD assay HPPD activity was measured at room temperature by adding appropriate amounts of HPPD to a solution of 200 mM Tris-HCl pH 7.6, 10 mM ascorbate, 20 μM FeSO4, 650 units of catalase, 8 μg HGA dioxygenase (HGA: homogentisate) and 600 μM HPP in a total volume of 1 ml. Initial reaction rates in the absence or presence of inhibitors were determined from the increase in absorbance at 318 nm due to the formation of maleylacetoacetate (ε318=11,900 M−1 cm-1). pI50-values (the negative log value of the concentration of inhibitor necessary to inhibit 50% of the enzyme activity in molar concentration were determined from dose-response plots of HPPD activity versus inhibitor concentration tested using the 4 Parameter Logistic Model or Sigmoidal Dose-Response Model of the ID Business Solutions Ltd. XLfit software suite. Due to the UV absorption of the HPPD inhibitors tested, inhibitor concentrations >100 μM could not be tested. The result “<4” means that the inhibition at 100 μM inhibitor concentration was lower than 25% and the pI50-value could therefore not be precisely calculated within in the range of concentration of inhibitor tested. “n.d.” means not determined. The HGD assay allowed to continuously follow HPPD-catalyzed HGA formation over time was therefore used to determine the inhibition type of the HPPD inhibitors tested. […] When in the presence of an inhibitor the HPPD activity was inhibited but the inhibition was found not to […] in a time-dependent manner, the inhibitor was called reversible (abbreviation “rev”). […]

[2] = system: Pseudomonas fluorescens HPPD protein; test: HGD assay: HPPD activity coupled to HGA dioxygenase, pI50 and type of inhibition (time-course); type: biochemical; details: for tolerance (pI50) DKN: inhibitor diketonitrile (DKN); for tolerance (pI50) DKN / tolerance (pI50) MST / tolerance (pI50) TBT / tolerance (pI50) Cmpd. 1 / tolerance (pI50) Cmpd. 2 / tolerance (pI50) Cmpd. 3 / tolerance (pI50) Cmpd. 4 / tolerance (pI50) Cmpd. 5: HGD assay; for tolerance (pI50) MST: inhibitor mesotrione (MST); for tolerance (pI50) TBT: inhibitor tembotrione (TBT); for tolerance (pI50) Cmpd. 1: inhibitor Cmpd. 1; for tolerance (pI50) Cmpd. 2: inhibitor Cmpd. 2; for tolerance (pI50) Cmpd. 3: inhibitor Cmpd. 3; for tolerance (pI50) Cmpd. 4: inhibitor Cmpd. 4; for tolerance (pI50) Cmpd. 5: inhibitor Cmpd. 5
Description: as §1, §2

[3] = system: Pseudomonas fluorescens HPPD protein; test: brown color assay: HPPD extracts spotted on solid media containing tyrosine and an HPPD inhibitor; type: biochemical; details: TBT, DKN and mesotrione 500-2000 uM, compared with PfHPPD and PfEvo33
Description: A specific, although non-limiting, type of assay that can be used to evaluate the HPPD sequences of the invention is a colorimetric assay. In this assay, a YT-broth-type culture medium with 1% agarose, 5 mM L-Tyrosine and 42 mM Succinate, which contains the selection agent for the vector pSE420 (Invitrogen, Karlsruhe, Germany) or a modified version of pSE420 (pSE420(RI)NX) is poured into deep well plates. E. coli culture in the exponential growth phase which contains the vector pSE420-HPPDx (HPPDx means any gene coding for a putative HPPD enzyme/protein) is applied to each well.
The HPPD PfEvo33 mutant (described in International Patent Application No PCT/US2013/59598 (filed on Sep. 13, 2013) and set forth herein as SEQ ID NO:5) was mutagenized at positions 334 and 336. Saturated mutagenesis of these positions was carried out using the QUIKCHANGE® lightning kit. Mutants were pooled and transformed into DH5alpha E. coli cells. Six hundred individual clones were screened for tolerance to the HPPD inhibitor tembotrione (TBT). The clones were grown in LB media plus kanamycin at 37 degrees C. in a shaker until an OD600 nm of 0.3 was reached. Cultures were then switched to 30 degrees C. and incubated for an additional 17 hours. Cultures were spun down and cell pellets resuspended in 10 mM Hepes/KOH pH 7.6, 4 mM MgCl2, 1 mM DTT. […]
The mutants were analyzed using a brown color assay. […]

[4] = HT-single plant expression cassette
[5] = HT-triple plant expression cassette

Row | Molecule | Activity DeltaE/24 min μg Protein [1] | tolerance (pI50) Cmpd. 2 [1] | tolerance (pI50) DKN [1] | tolerance (pI50) MST [1] | mechanism of inhibition by diketonitrile (DKN), time-course of inhibition [2] | mechanism of inhibition by mesotrione (MST), time-course of inhibition [2] | mechanism of inhibition by tembotrione (TBT), time-course of inhibition [2] | tolerance (pI50) DKN [2] | tolerance (pI50) MST [2] | tolerance (pI50) TBT [2] | Number of T0 soybean plants with herbicide tolerance rating 0 (completely bleached) (T0 soybean plants; [5]) | Number of T0 soybean plants with herbicide tolerance rating 1 (slight tolerance) (T0 soybean plants; [5]) | Number of T0 soybean plants with herbicide tolerance rating 2 (moderate tolerance) (T0 soybean plants; [5]) | Number of T0 soybean plants with herbicide tolerance rating 3 (nearly perfect tolerance) (T0 soybean plants; [5]) | tolerance (pI50) TBT [1] | tolerance (pI50) Cmpd. 1 [2] | tolerance (pI50) Cmpd. 2 [2] | tolerance (pI50) Cmpd. 3 [2] | tolerance (pI50) Cmpd. 4 [2] | tolerance (pI50) Cmpd. 5 [2] | further results
1 | CS(=O)(=O)c1ccc(C(=O)C2C(=O)CCCC2=O)c([N+](=O)[O-])c1 [mesotrione, 2-[4-(methylsulfonyl)-2-nitrobenzoyl]-1,3-cyclohexanedione, reference compound] | – | – | – | – | – | – | – | – | – | – | – | – | – | – | – | – | – | – | – | – | leaf damage of wild type soybean plants (T0 soybean plants; Callisto 4 SC formulation, 3× field rate, one week after spraying): 100%
2 | B1 | 0.39 DeltaE/24 min μg Protein | >5.6 | 4.1 | 4.6 | fully reversible inhibition | fully reversible inhibition | fully reversible inhibition | 4.0 | 5.1 | 6.0 | 6 | 18 | 26 | 20 | – | – | – | – | – | – | Number of T0 soybean plants with herbicide tolerance rating 0 (completely bleached) (T0 soybean plants; [4]): 1; Number of T0 soybean plants with herbicide tolerance rating 1 (slight tolerance) (T0 soybean plants; [4]): 13; Number of T0 soybean plants with herbicide tolerance rating 2 (moderate tolerance) (T0 soybean plants; [4]): 25; Number of T0 soybean plants with herbicide tolerance rating 3 (nearly perfect tolerance) (T0 soybean plants; [4]): 34; brown color formation in presence of HPPD inhibitors [3]: darkest color
3 | B2 | 0.36 DeltaE/24 min μg Protein | 5.4 | 3.3 | 3.7 | fully reversible inhibitors | fully reversible inhibitors | fully reversible inhibitors | 4.6 | 5.0 | 6.2 | 13 | 18 | 35 | 12 | 4.8 | 6.1 | 5.8 | 5.9 | 6.6 | 6.1 | –
4 | B3 | 0.39 DeltaE/24 min μg Protein | 5.5 | 3.2 | 3.7 | fully reversible inhibitors | fully reversible inhibitors | fully reversible inhibitors | 4.3 | 5.3 | 6.2 | 3 | 18 | 39 | 11 | 4.8 | 6.2 | 6.2 | 6.4 | 6.6 | 6.0 | –
